Substrate in the data set: pNPB
As to the kind of experiment: Proxy for plastic degradation [Absorbance @ 405nm].

B1: unnamed (protein)
chain: MTDVEIALSTGRVKGTDLGDVVRYYGIPYAEDPVGDLRFAAPVRREPWPGVRDATRPAATAQRLRFDPDPAIPEPIVAGTDILHVDVWAPTEGAGHPVLVWIHGGGWESGSSHQPWFVGTAFARAGIVVVSVGYRLGVEGFTAFPDAPDNRGVRDWIMALEWVRDEIAAFGGDPGQVTVSGQSAGGGAVLCLLASPLAAGLFHRGIASSPAVLRSPAAQAPKGTTAAGLAAGGRGAVDEFHRRLRKDNPFLMPFRPTVGDDTVPVPPLEGIGSGPGLDLPLLIGSTATEFEGVVRALPGAALVPGAAMILRSQELPTTGLRALARQSAGKSLRRAVGAVVDAATIHSTVVRAAETRVAAGAPTWVYDFRWSEGRGAVHCADLPFFWSVPEAANVRAYLGADAPPGLVDAMHRSWVDFVRSGDPGSPPYAPPGRRVQVWDEPPAVVEDGLADVRAVWWPAGGS
Consider B1, for which the “Proxy for plastic degradation” value was 10.3 U/mg (pH 5); 15.4 U/mg (pH 5.5); 41.1 U/mg (pH 6); 61.7 U/mg (pH 6.5); 72 U/mg (pH 7); 77.1 U/mg (pH 7.5). The “Proxy for plastic degradation” value runs as follows: (pH 8, 10 °C) 36 U/mg; (pH 8, 20 °C) 46.3 U/mg; (pH 8, 25 °C) 77.1 U/mg; (pH 8, 30 °C) 92.6 U/mg; (pH 8, 37 °C) 103 U/mg; (pH 8, 40 °C) 84.9 U/mg. Further, the “Proxy for plastic degradation” value by setting is: (pH 8, 50 °C) 59.7 U/mg; (pH 8, 60 °C) 20.6 U/mg; (pH 8, 70 °C) 10.3 U/mg; (pH 8.5) 92.6 U/mg; (pH 9) 87.4 U/mg.

For the origin of these results see the PETadex activity labels (doi:10.1016/j.bbrc.2024.150833).
